According to publication PMC5964235, “rbFOX1/MBNL1 competition for CCUG RNA repeats binding contributes to myotonic dystrophy type 1/type 2 differences”:

Columns and labels:
GST-rbFOX1 = biological target: T1, GST-rbFOX1 (UniProt Q9NWB1); experiment: EMSA; conditions: apparent KD; EMSA: 50 mM Tris-HCl pH 7.0, 75 mM NaCl, 37.5 mM KCl, 0.75 mM MgCl2, 5.25 mM DTT, 0.1 mg/mL BSA, 0.1 mg/mL bulk tRNA, 0.4 U/uL RNAsin, 20 min on ice, 10 pM …
T1 sequence: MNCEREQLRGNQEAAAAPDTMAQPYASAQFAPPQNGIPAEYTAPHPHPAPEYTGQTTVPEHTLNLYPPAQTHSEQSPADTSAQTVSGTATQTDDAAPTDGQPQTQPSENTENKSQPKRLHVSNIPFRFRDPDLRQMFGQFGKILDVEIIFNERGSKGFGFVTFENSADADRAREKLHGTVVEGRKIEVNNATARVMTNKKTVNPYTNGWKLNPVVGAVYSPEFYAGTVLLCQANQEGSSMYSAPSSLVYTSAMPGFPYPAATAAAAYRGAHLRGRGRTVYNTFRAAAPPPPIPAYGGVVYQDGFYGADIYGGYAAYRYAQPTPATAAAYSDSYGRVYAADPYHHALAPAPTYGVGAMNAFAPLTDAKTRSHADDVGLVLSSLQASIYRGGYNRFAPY

rbFOX1 RRM = biological target: T2, rbFOX1 RRM (UniProt Q9NWB1 117-193); experiment: NMR; 15N-1H HSQC; EMSA: 50 mM Tris-HCl pH 7.0, 75 mM NaCl, 37.5 mM KCl, 0.75 mM MgCl2, 5.25 mM DTT, 0.1 mg/mL BSA, 0.1 mg/mL bulk tRNA, 0.4 U/uL RNAsin, 20 min on ice, 10 pM RNA; gel at 4 C; conditions: protein: recombinant
T2 sequence: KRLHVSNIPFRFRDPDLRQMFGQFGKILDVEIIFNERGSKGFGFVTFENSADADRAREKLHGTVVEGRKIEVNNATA

GGGAGACCCAAGCUGGCUAGCGUUUAAACUUAAGCUUCCUGCCUGCCUGCCUGCCUGCCUGCCUGCCUGCCUGCCUGCCUGCCUGCCUGCCUGCCUGCCUGCCUGCCUGCCUGCCUGCCUGCCUGCCUGCCUGCCUGCCUGCCUGCCUGCCUGCCUGCCUGCCUGCCUGCCUGCCUGCCUGCCUGCCUGCCUGCCUGCCUGCCUGCCUGCCUGCCUGCCUGCCUGCCUGCCUGCCUGCCUGCCUGCCUGCCUGCCUGCCUGCCUGCCUGCCUGCCUGCCUGCCUGCCUGCCUGCCUGCCUGCCUGCCUGCCUGCCUGCCUGCCUGCCUGCCUGCCUGCCUGCCUGCCUGCCUGCCUGCCUGCCUGCCUGCCUGCCUGCCUGCCUGCCUGCCUGCCUGCCUGCCUGCCUGCCUGCCUGCCUGCCUGCCUGCCUGCCUGG [(CCUG)100]
Kd (GST-rbFOX1): 3.2 nM

GGGAGACCCAAGCUGGCUAGCGUUUAAACUUAAGCUUCCUGCCUGCCUGCCUGCCUGCCUGCCUGCCUGCCUGCCUGCCUGCCUGCCUGCCUGCCUGCCUGCCUGCCUGCCUGCCUGCCUGCCUGCCUGCCUGCCUGCCUGCCUGCCUGCCUGCCUGG [(CCUG)30]
Kd (GST-rbFOX1): 6.3 nM

GGGAGACCCAAGCUGGCUAGCGUUUAAACUUAAGCUUCCUGCCUGCCUGCCUGCCUGCCUGCCUGCCUGCCUGCCUGG [(CCUG)10]
Kd (GST-rbFOX1): 9.7 nM

B1: UGCCUGC (NMR) (ssRNA)
RNA: UGCCUGC
binding result (rbFOX1 RRM): binds

B2: UGCAUGU (NMR) (ssRNA)
RNA: UGCAUGU
binding result (rbFOX1 RRM): binds
